Laboratory results reported in patent publication US20070037211A1 (COUNCIL OF SCIENTIFIC AND INDUSTRIAL RESEARCH CSIR, published 2007).
No end group written: not given here.

Target: T1, Hsp16.3, 16 kDa alpha-crystallin like heat shock protein of Mycobacterium tuberculosis, recombinant … (Mycobacterium tuberculosis, UniProt P9WMK1 1-144)
T1 construct: also called M. tuberculosis Acr; not shown: pQE-8 vector-derived residues flanking the 6xHis tag
T1 sequence: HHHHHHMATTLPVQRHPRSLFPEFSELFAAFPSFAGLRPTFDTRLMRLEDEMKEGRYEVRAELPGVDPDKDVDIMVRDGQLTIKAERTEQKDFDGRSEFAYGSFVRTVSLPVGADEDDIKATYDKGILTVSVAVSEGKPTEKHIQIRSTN
Test: reverse phage ELISA on coated Hsp16.3, anti-M13-HRP, A405

B1: M13 phage clone displaying peptide Seq ID 21 (Tyr-Pro-His-His-Phe-Lys-His-Arg-His-Ile-Pro-Ile), from Ph.D.-12 library (peptide)
peptide: YPHHFKHRHIPI
modifications: also: displayed on M13 phage, fused to coat protein
notes: Tested as whole phage particles in reverse phage ELISA; not shown: M13 coat protein to which the peptide is fused, and the spacer to it
- fold binding over non-specific control BSA: ~3 fold
